Columns and labels:
[1] = tested on: PIN-dCas9 deltaHNH del775-909 (Streptococcus pyogenes); experiment: cell_activity; conditions: COSM6, Northern blot
[2] = tested on: PIN-XTEN-dCas9-2xNLS (Streptococcus pyogenes); experiment: cell_activity; conditions: no PAMmer, Northern dot blot; full-length Cas9 gave >95% loss in FIG. 8C

“CUG repeat-targeting sgRNA ; CUG repeat RNA” showed an activity [1] of over 95 % RNA loss and an activity (% RNA remaining) [2] of 35.

Source: patent US20200239863
